Assay: soluble on expression in E. coli; label from the status in PepcDB or PDB records

Sequence | soluble on expression in E. coli
VPLEHFNVPYEDSFFPAVRVKFQGSTKTLIFHGGYDSCLEEMLPFFSAFENLGYDIIAFEGPGQGMALKNGLKFIHNWERPVSALLDYFNLNEVTILGCSWGGYFCLRAAAFEKRIKAAIVYDIFYCGMDVIGMKNKEMRYELEKLLNNNEKDKINELMYSKMKADIDFNWKISKGMDNTMTYTPYDFLKAIQLHTMDGIEELIDQDVLLLAGEEDQYVPIEAMKLFEDRLVNANITKKIFTKETGGEQHCQVGRIDLAFDEIKKFLVR | not soluble
MTTQVKPIRSFLFVPGNKESMLDKAALAKADALILDLEDSVPPAEKLAARELVARKIPALIAQGQRIWVRINRSAHIYDLDDILAVAQPGVEGVVISKPWGPEDVYMASSMIAEAETRANLPLGSIGLIPLLETARSMQLCYEIAQMPRVVGIVGATAKNADMGRALKFVWTPEGRETEYLKSRVVMAARAAGKQAIGGIWQQIKDLEGLARSSAFDRQLGMSGELALHPMQVETINRTYTPTAEDVAYYQGMIDALDAAQAQGRASVMYDGEHIDIAHVKTAHEVIALARAFDAAAALEHHHHHH | soluble
MGSDKIHHHHHHMANTPLLITLLPSSGVDLSRWLMAHYGVTYEERPHAPIFHVLALKSWGEGKDGYPLFVHADRTTKTVGCRKIAEFFDPSAPADKTLLPDPDAEPELAAQVDDIVKYSYWTIGGDVVNWSYWNFLKYKWVVWPSLTTKVPWYEKLTCLVAFRLIRFLMYKGLKLDQRVADASLKEILAGFDKFDAMLADGRPYLTGDRMTYADLATAAALGPMILAQGYHGMLPNQAKCPVFMQGIYQQLRQRPTGLFIQRMYDQHRPAQLLQI | not soluble
MSLTIVAPMDEILERAHVVALPMRVKFRGIMVREAVLFDGPKGWGEFSPFVEYGVQEAAQWLRCGLEMAFQGPPPMIRDAVEVNATIPAVSPDQVPEILARYPGCTTVKVKVAEGDDAARVAMVREVLPDARIRVDANRGWTVDQAVAASKHLGELEYMEQPCASVAELAELRRRISVPIAADESIRRVSDPYEVARLHAADVAVVKAAPLGGPRNIVDIAKFYQQRGLSLTVASALDTGVGMNAGIAVAAAIDSNPAGLATQRLFVEDVTEPRTIVDGKMSVEMLAPDPARLAEFEVTGPRRDWWLDRVRGALECLHDFIPEGHHHHHH | soluble
MVKQIESKTAFQEALDAAGDKLVVVDFSATWCGPCKMIKPFFHSLSEKYSNVIFLEVDVDDAQDVAPKYGIRGIPTLLLFKNGEVAATKVGALSKGQLKEFLDANLV | soluble
MGSDKIHHHHHHMPKLKLIGVDLGGTTFSVGLVSEDGKILKKVTRDTLVENGKEDVIRRIAETILEVSDGEEAPYVGIGSPGSIDRENGIVRFSPNFPDWHNVPLTDELAKRTGKKVFLENDANAFVLGEKWFGAGRGHDHIVALTLGTGIGGGVVTHGYLLTGRDGIGAELGHVVVEPNGPMCNCGTRGCLEAVASATAIRRFLREGYKKYHSSLVYKLAGSPEKADAKHLFDAARQGDRFALMIRDRVVDALARAVAGYIHIFNPEIVIIGGGISRAGEILFGPLREKVVDYIMPSFVGTYEVVASPLVEDAGILGAASIIKERIGG | not soluble
MNMKPESKEAPINIRAKASQRDLIDMAANLVAKSRTDFMLDAACREAQDILLDQRLFILDDEQYDAFLAALDAPITAERQAKINALMNRKSPWE | soluble
MGSDKIHHHHHHMSNQRYMMRGVSASKEDVHNAIKNIDKGIFPKAFCKIIPDILGGDPEYCNIMHADGAGTKSSLAYMYWKETGDLSVWKGIAQDALIMNIDDLLCVGAVDNILVSSTIGRNKLLIPGEVISAIINGTDELLAELREMGVGVYATGGETADVGDLVRTIIVDSTVTCRMKRSDVINNANIRPGDVIVGLASYGQATYEKEYNGGMGSNGLTSARHDVFGKYLAEKYPESYDAAVPEELVYSGGLKLTDTVEDSPIDAGKLVLSPTRTYAPVVKKLLDTLRPEIHGMVHCSGGAQTKVLHFVENVRVVKDNLFPVPPLFKTIQEQSGTDWAEMYKVFNMGHRLEVYLSPEHAEEVIAISESFGIPAQIVGRIEACDQTELIIKSEFGEFRY | not soluble
NTRGMALFADGGIVGTKPYAASGSYIKKMSDYCKGCHYDNKARSGEGSCPFNSLYWRFMDKHEKRLATNPRIGMIFRSWDNMEASQRQAILDT | not soluble
MSAMKKLVVLGGGYGGMRILQRLLPNDLPSDWEITLVDRLPYHCLKTEYYALAAGTASDHHLRVSFPEDPRLSTRYGSVSSIDLASKTVLFEEGEPLTYDTLIIGLGCEDKYHGVPGAKEHTYSIQSMEATRRTYEALNNVRPEGVVTIVGAGLSGVELASELRESRPDLTIKLLDRGDIILSMFPRRLSNYVQNWFIDHGVDIINKSNVTKVEEGAVYNHDERIESDAIIWTAGLEHHHHHH | soluble
GHMSSTPSNQNIIPIIKKESIVSLFEKGIRQDGRKLTDYRPLSITLDYAKKADGSALVKLGTTMVLAGTKLEIDKPYEDTPNQGNLIVNVELLPLAYETFEPGPPDENAIELARVVDRSLRDSKALDLTKLVIEPGKSVWTVWLDVYVLDYGGNVLDACTLASVAALYNTKVYKVEQHSNGISVNKNEVVGKLPLNYPVVTISVAKVDKYLVVDPDLDEESIMDAKISFSYTPDLKIVGIQKSGKGSMSLQDIDQAENTARSTAVKLLEELKKHLGI | soluble
MSHAIQIREAHFPGRAPIDAYGNGGFRFADMSHRGSIICIPSGIYGIDMTGPVPTQEDISRVLEESDQIEVLLIGTGVELLRLPEELRVLLWEKRISSDTMSTGAAVRTFNVLLAEDRAVAALLFAVE | soluble
MAPKKVLLALTSYNDVFYSDGAKTGVFVVEALHPFNTFRKEGFEVDFVSETGKFGWDEHSLAKDFLNGQDETDFKNKDSDFNKTLAKIKTPKEVNADDYQIFFASAGHGTLFDYPKAKDLQDIASEIYANGGVVAAVCHGPAIFDGLTDKKTGRPLIEGKSITGFTDVGETILGVDSILKAKNLATVEDVAKKYGAKYLAPVGPWDDYSITDGRLVTGVNPASAHSTAVRSIDALKN | soluble
MILHAQAKHGKLGLPWLVFLHGFSGDCHEWQEVGEAFADYSRLYVDLLGHGGSAAISVDGFDDVTDLLRKTLVSYNILDFWLVGYSLGGRVAMMAACQGLAGLCGVIVEGGHPGLQNAEQRAERQRSDRQWAQRFRTEPLTAVFADWYQQPVFASLNDDQRRELVALRSNNNGATLAAMLEATSLAVQPDLRANLSARTFAFYYLCGERDSKFRALAAELAADCHVIPRAGHNAHRENPAGVIASLAQILRF | not soluble
MGSDKIHHHHHHMMQNNPFPYSNTEKRYHTLNYHLREHFGHKVFKVALDGGFDCPNRDGTVAHGGCTFCSAAGSGDFAGNRTDDLITQFHDIKNRMHEKWKDGKYIAYFQAFTNTHAPVEVLREKFESVLALDDVVGISIATRPDCLPDDVVDYLAELNERTYLWVELGLQTVHERTALLINRAHDFNCYVEGVNKLRKHGIRVCSHIINGLPLEDRDMMMETAKAVADLDVQGIKIHLLHLLKGTPMVKQYEKGKLEFLSQDDYVQLVCDQLEIIPPEMIVHRITGDGPIELMIGPMWSVNKWEVLGAINKELENRGSYQGKFFQRLEEESAL | not soluble
MGSDKIHHHHHHKSTFKQELAVGASFGLNFSSVSFAPKVPTKMKLGFNGGATIRWNTEPNLGIQAELNFTQHGWEEKFEEKPQYKYSRTVNYMELPFLTHIHFGSKRVRVFVNLGPKIGYALSESTESNLNGENPNANRPDEQHTLEVQKKFDWGLCGGPGIELRTGIGSFLLEGRYYYALGDMFNSRKGDTFSKSSSQIISAKLTYLIPIFSK | not soluble
GHMTDEDSEANALADPDNPPLSAEQLASAPRMPRIKIIRRALKLTQEEFSARYHIPLGTLRDWEQGRSEPDQPARAYLKIIAVDPEGTAAALRKGATGS | soluble
MLTRGFTSIGKIASRGLSSTFYQDAFQLSDQLTEDERSLMLSAREYCQERLLPRVTEAYRTEKFDPSLIPEMGSMGLLGAPYQGYGCAGTSTVGYGLIAREVERVDSGYRSTMSVQTSLVIGPIYNYGSEDQKQKYIPDLASGKKIGCFGLTEPNHGSNPGGMETKATWDETTKTYKLNGSKTWISNSPVSDVMVVWARSARHNNKIKGFILERGMKGLTTPKIEGKLSLRASITGQIAMDDVPVPEENLLPNAEGLQGPFGCLNNARLGIAWGALGAAEECFHLARQYTLDRQQFGRPLAQNQLMQLKMADMLTEISLGLQGCLRVSRLKDEGKVQSEQISIIKRNSCGKALEVARKARDMLGGNGIVDEYHIMRHMVNLETVNTYEGTHDVHALILGRAITGLNGFC | not soluble
MGHHHHHHSHMSYKPNLAAHMPAAALNAAGSVHSPSTSMATSSQYRQLLSDYGPPSLGYTQGTGNSQVPQSKYAELLAIIEELGKEIRPTYAGSKSAMERLKRGIIHARGLVRECLAETERNARS | soluble
GPGSMAGAADPRDEDAKAVNAVLRLPEDDFYAVLGLGEAREDATERDIKNAFRRLSKKYHPDVATGDQDSYRLVYQRVQRAYEVLGDRRKRKIYDILGIDGVTRLEKPQQQQQMNPFFAFFGVGQQADAERGKDMVLLMVVPLEDIYRGAAHTSRFAKRKICRACKGTGARSGEDVVKCPHCQGRGRLAQRVQIAPGFVQQVEQVCPHCQGKGTHVAHMCPVCRGKMVLPGEAVLSVDIEEGLPEGHVLTYELEADQAPGQVPGDVLLTVISAPHPVFHRSGNDLYANVSITLKEALLGFKKTLAHLDGHNVELHWDGVMQNTQQVRIAGEGMPRHHVPSERGDLYITYNVLLPEALTAEQRALFQEHFA | not soluble
MGLSCALTSGLSLRCFSNTPARLSCGAGILHCSKLCLSGFGDPAQGRLHNANHGAVRLHGTVTAFKHRRGYGFVLAEGVAASAPPLKHTYVALDTHAAAARNNGVPPAREEACNELHKSFFFTRSALMGGFYVTEGERVSFAVVAVPPGKGINRRVAGDSPSTRKDDGDHAALGGAETAEFLLGSPEGELEEDSSAATSDTQSQLHRIAVSLRYYDAKTGKETPISPLTLYGKIVEWDAAAGVGVIAELDTRRQYHEDAPRFPFSLESVDLALGTELRSGRYVRFCLEPATHAQGGGGEDTAAAVTPTSGAEAAADVDEDVELVAQRVIIDSSMERRKGVFGRPLVLADAAPGTMTSESRFSGVVREVKADHFGFIQDDLSGESIFFHLSNASSRVKAGDRVTYLLREVEYGKHTGKKACFDVLIDQTVTSRARDAASDCGASAGAGNAGGHHRKHAAERRSKTARDEDDLDFELL | not soluble
MSLAVLGDVARLADVSTATVSRVYNEPDKVSPSVRERVLQAAAALNWIPNAAGRALASTRTHIAGAIIPTLDDQVFASQVAGMQAVFAERGITLFLGCSNYDPAQALIQVRAMLARGVEVIAIVGEAHPPELFDALKQARVPYAITYAYREGSPHHCIGFDNRAAFVAIAEHLLALGHRTFAAVIQPARDNDRVQARVAGIREALERHGIAVRPSHLHEGPATIAFGRQSLRAIWQGADERPTAIICGNDQLAIGVLLEAAELGIKVPQQLSVTGFDDVAIAQQIHPSLTTVRVDTAEIGRRAARYLLDVLDGKEAAESGLVQPELMVRESTAEGHHHHHH | soluble
